Test results: patent publication US20110269680A1 (PANACEA BIOTEC, published 2011)
Numbered stars: 1 amine (or outer) side, 2 acyl side, 3 side chain; on linkers, the order of the positions; unused ones are H or OH. Square brackets hold non-standard residues; d marks the D form. Ends that are not written are not given here. X2 = 2‑amino‑1‑O‑methyl‑2‑deoxy‑alpha‑D‑glucopyranuronic acid, CO[C@H]1O[C@H](C(=O)[*:2])[C@@H](O)[C@H](O)[C@H]1N[*:1]; 2Furoyl(5-aminomethyl) = O=C(c1ccc(CN[*:1])o1)[*:2]; Aib = CC(C)(N)C(=O)O

Biological target: GLP-1 receptor
Test: cell-based or functional assay

Binder | EC50, Receptor Functional assay (intracellular cAMP in CHO/GLP-1R cells)
H[X2]GTFTSDVSSYLEGQAAKEFIAWLVKGR-NH2 (N-terminus assumed; SMILES CC[C@H](C)[C@H](NC(=O)[C@H](Cc1ccccc1)NC(=O)[C@H](CCC(=O)O)NC(=O)[C@H](CCCCN)NC(=O)[C@H](C)NC(=O)[C@H](C)NC(=O)[C@H](CCC(N)=O)NC(=O)CNC(=O)[C@H](CCC(=O)O)NC(=O)[C@H](CC(C)C)NC(=O)[C@H](Cc1ccc(O)cc1)NC(=O)[C@H](CO)NC(=O)[C@H](CO)NC(=O)[C@@H](NC(=O)[C@H](CC(=O)O)NC(=O)[C@H](CO)NC(=O)[C@@H](NC(=O)[C@H](Cc1ccccc1)NC(=O)[C@@H](NC(=O)CNC(=O)[C@H]1O[C@H](OC)[C@H](NC(=O)[C@@H](N)Cc2c[nH]cn2)[C@@H](O)[C@@H]1O)[C@@H](C)O)[C@@H](C)O)C(C)C)C(=O)N[C@@H](C)C(=O)N[C@@H](Cc1c[nH]c2ccccc12)C(=O)N[C@@H](CC(C)C)C(=O)N[C@H](C(=O)N[C@@H](CCCCN)C(=O)NCC(=O)N[C@@H](CCCNC(=N)N)C(N)=O)C(C)C) [Seq ID No. 07] | 0.056 nM
HXGTFTSDVSSYLEGQAAKEFIAWLVKXR (Xaa1 at position 2 is furan aminoacid (5-aminomethyl-furan-2 carboxylic acid); Xaa2 at position 28 is dialkylated aminoacid (alpha-aminoisobutyric acid); C-terminal amide (Arg-NH2)) [Seq ID No. 11] | 0.102 nM
H[2Furoyl(5-aminomethyl)]GTFTSD[Aib]SSYLEGQAAKEFI[Aib]WLVKGRG-NH2 (N-terminus assumed; SMILES CC[C@H](C)[C@H](NC(=O)[C@H](Cc1ccccc1)NC(=O)[C@H](CCC(=O)O)NC(=O)[C@H](CCCCN)NC(=O)[C@H](C)NC(=O)[C@H](C)NC(=O)[C@H](CCC(N)=O)NC(=O)CNC(=O)[C@H](CCC(=O)O)NC(=O)[C@H](CC(C)C)NC(=O)[C@H](Cc1ccc(O)cc1)NC(=O)[C@H](CO)NC(=O)[C@H](CO)NC(=O)C(C)(C)NC(=O)[C@H](CC(=O)O)NC(=O)[C@H](CO)NC(=O)[C@@H](NC(=O)[C@H](Cc1ccccc1)NC(=O)[C@@H](NC(=O)CNC(=O)c1ccc(CNC(=O)[C@@H](N)Cc2c[nH]cn2)o1)[C@@H](C)O)[C@@H](C)O)C(=O)NC(C)(C)C(=O)N[C@@H](Cc1c[nH]c2ccccc12)C(=O)N[C@@H](CC(C)C)C(=O)N[C@H](C(=O)N[C@@H](CCCCN)C(=O)NCC(=O)N[C@@H](CCCNC(=N)N)C(=O)NCC(N)=O)C(C)C) [Seq ID No. 10] | 3.38 nM
H[2Furoyl(5-aminomethyl)]EGTFTSD[Aib]SSYLEGQAAKEFI[Aib]WLVKGR-NH2 (N-terminus assumed; SMILES CC[C@H](C)[C@H](NC(=O)[C@H](Cc1ccccc1)NC(=O)[C@H](CCC(=O)O)NC(=O)[C@H](CCCCN)NC(=O)[C@H](C)NC(=O)[C@H](C)NC(=O)[C@H](CCC(N)=O)NC(=O)CNC(=O)[C@H](CCC(=O)O)NC(=O)[C@H](CC(C)C)NC(=O)[C@H](Cc1ccc(O)cc1)NC(=O)[C@H](CO)NC(=O)[C@H](CO)NC(=O)C(C)(C)NC(=O)[C@H](CC(=O)O)NC(=O)[C@H](CO)NC(=O)[C@@H](NC(=O)[C@H](Cc1ccccc1)NC(=O)[C@@H](NC(=O)CNC(=O)[C@H](CCC(=O)O)NC(=O)c1ccc(CNC(=O)[C@@H](N)Cc2c[nH]cn2)o1)[C@@H](C)O)[C@@H](C)O)C(=O)NC(C)(C)C(=O)N[C@@H](Cc1c[nH]c2ccccc12)C(=O)N[C@@H](CC(C)C)C(=O)N[C@H](C(=O)N[C@@H](CCCCN)C(=O)NCC(=O)N[C@@H](CCCNC(=N)N)C(N)=O)C(C)C) [Seq ID No. 04] | 0.072 nM
H[X2]EGTFTSDVSSYLEGQAAKEFIAWLVKGR-NH2 [Seq ID No. 06] | 0.838 nM
H[2Furoyl(5-aminomethyl)]EGTFTSDVSSYLEGQAAKEFIAWLVKGR-NH2 [Seq ID No. 03] | 0.061 nM
H[2Furoyl(5-aminomethyl)]EGTFTSDVSSYLEGQAAKEFIAWLVKGRG-NH2 [Seq ID No. 01] | 0.103 nM
HGEGTFTSDXSSYLEGQAAKEFIXWLVKGR (Xaa1 at position 10 and Xaa2 at position 24 are dialkylated aminoacid (alpha-aminoisobutyric acid); C-terminal amide (Arg-NH2)) [Seq ID No. 05] | 0.083 nM
H[2Furoyl(5-aminomethyl)]GTFTSDVLSYQEGQAAKLFIEWLVKGR-NH2 [Seq ID No. 12] | 2.24 nM
H[2Furoyl(5-aminomethyl)]GTFTSDVSSYLEGQAAKEFIAWLVKGR-NH2 (N-terminus assumed; SMILES CC[C@H](C)[C@H](NC(=O)[C@H](Cc1ccccc1)NC(=O)[C@H](CCC(=O)O)NC(=O)[C@H](CCCCN)NC(=O)[C@H](C)NC(=O)[C@H](C)NC(=O)[C@H](CCC(N)=O)NC(=O)CNC(=O)[C@H](CCC(=O)O)NC(=O)[C@H](CC(C)C)NC(=O)[C@H](Cc1ccc(O)cc1)NC(=O)[C@H](CO)NC(=O)[C@H](CO)NC(=O)[C@@H](NC(=O)[C@H](CC(=O)O)NC(=O)[C@H](CO)NC(=O)[C@@H](NC(=O)[C@H](Cc1ccccc1)NC(=O)[C@@H](NC(=O)CNC(=O)c1ccc(CNC(=O)[C@@H](N)Cc2c[nH]cn2)o1)[C@@H](C)O)[C@@H](C)O)C(C)C)C(=O)N[C@@H](C)C(=O)N[C@@H](Cc1c[nH]c2ccccc12)C(=O)N[C@@H](CC(C)C)C(=O)N[C@H](C(=O)N[C@@H](CCCCN)C(=O)NCC(=O)N[C@@H](CCCNC(=N)N)C(N)=O)C(C)C) [Seq ID No. 08] | 0.601 nM
HXEGTFTSDXSSYLEGQAAKEFIXWLVKGRG (Xaa1 at position 2 is furan aminoacid (5-aminomethyl-furan-2 carboxylic acid); Xaa2 at position 10 and Xaa3 at position 24 are dialkylated aminoacid (alpha-aminoisobutyric acid); C-terminal amide (Gly-NH2)) [Seq ID No. 09] | 1 nM
H[2Furoyl(5-aminomethyl)]GTFTSDVSSYLEGQAAKEFIAWLVKGRG-NH2 (N-terminus assumed; SMILES CC[C@H](C)[C@H](NC(=O)[C@H](Cc1ccccc1)NC(=O)[C@H](CCC(=O)O)NC(=O)[C@H](CCCCN)NC(=O)[C@H](C)NC(=O)[C@H](C)NC(=O)[C@H](CCC(N)=O)NC(=O)CNC(=O)[C@H](CCC(=O)O)NC(=O)[C@H](CC(C)C)NC(=O)[C@H](Cc1ccc(O)cc1)NC(=O)[C@H](CO)NC(=O)[C@H](CO)NC(=O)[C@@H](NC(=O)[C@H](CC(=O)O)NC(=O)[C@H](CO)NC(=O)[C@@H](NC(=O)[C@H](Cc1ccccc1)NC(=O)[C@@H](NC(=O)CNC(=O)c1ccc(CNC(=O)[C@@H](N)Cc2c[nH]cn2)o1)[C@@H](C)O)[C@@H](C)O)C(C)C)C(=O)N[C@@H](C)C(=O)N[C@@H](Cc1c[nH]c2ccccc12)C(=O)N[C@@H](CC(C)C)C(=O)N[C@H](C(=O)N[C@@H](CCCCN)C(=O)NCC(=O)N[C@@H](CCCNC(=N)N)C(=O)NCC(N)=O)C(C)C) [Seq ID No. 02] | 0.043 nM
